Target: the molecule itself
Assay: cryo-EM structure

B1: human phosphorylase kinase β subunit (PHKB), phosphorylated (natural protein, UniProt Q93100 1-1093, looked up)
chain: MAGAAGLTAEVSWKVLERRARTKRSGSVYEPLKSINLPRPDNETLWDKLDHYYRIVKSTLLLYQSPTTGLFPTKTCGGDQKAKIQDSLYCAAGAWALALAYRRIDDDKGRTHELEHSAIKCMRGILYCYMRQADKVQQFKQDPRPTTCLHSVFNVHTGDELLSYEEYGHLQINAVSLYLLYLVEMISSGLQIIYNTDEVSFIQNLVFCVERVYRVPDFGVWERGSKYNNGSTELHSSSVGLAKAALEAINGFNLFGNQGCSWSVIFVDLDAHNRNRQTLCSLLPRESRSHNTDAALLPCISYPAFALDDEVLFSQTLDKVVRKLKGKYGFKRFLRDGYRTSLEDPNRCYYKPAEIKLFDGIECEFPIFFLYMMIDGVFRGNPKQVQEYQDLLTPVLHHTTEGYPVVPKYYYVPADFVEYEKNNPGSQKRFPSNCGRDGKLFLWGQALYIIAKLLADELISPKDIDPVQRYVPLKDQRNVSMRFSNQGPLENDLVVHVALIAESQRLQVFLNTYGIQTQTPQQVEPIQIWPQQELVKAYLQLGINEKLGLSGRPDRPIGCLGTSKIYRILGKTVVCYPIIFDLSDFYMSQDVFLLIDDIKNALQFIKQYWKMHGRPLFLVLIREDNIRGSRFNPILDMLAALKKGIIGGVKVHVDRLQTLISGAVVEQLDFLRISDTEELPEFKSFEELEPPKHSKVKRQSSTPSAPELGQQPDVNISEWKDKPTHEILQKLNDCSCLASQAILLGILLKREGPNFITKEGTVSDHIERVYRRAGSQKLWLAVRYGAAFTQKFSSSIAPHITTFLVHGKQVTLGAFGHEEEVISNPLSPRVIQNIIYYKCNTHDEREAVIQQELVIHIGWIISNNPELFSGMLKIRIGWIIHAMEYELQIRGGDKPALDLYQLSPSEVKQLLLDILQPQQNGRCWLNRRQIDGSLNRTPTGFYDRVWQILERTPNGIIVAGKHLPQQPTLSDMTMYEMNFSLLVEDTLGNIDQPQYRQIVVELLMVVSIVLERNPELEFQDKVDLDRLVKEAFNEFQKDQSRLKEIEKQDDMTSFYNTPPLGKRGTCSYLTKAVMNLLLEGEVKPNNDDPCLIS
modifications: phosphorylated by PKAc; phosphoserine at Ser12, Ser27 and Ser701
binding result: binds

From PMC11950179 (Nature Communications, 2025)
